Laboratory results reported in patent US20260167699A1 (Chugai, published 2026).
Where a chain is given by its changes, count along the chain named.

B1: GpH7-A5/GpH7-B3 variant S337_08L/GpL16-k0 (antibody, human IgG1, kappa)
heavy 1: not shown
heavy 2: not shown
light: DIVMTQSPLSLPVTPGEPASISCQASESLVHSNRNTYLHWYLQKPGQSPQLLIYKVSNRFSGVPDRFSGSGSGTDFTLKISRVEAEDVGVYYCSQNTHVPPTFGQGTKVEIERTVAAPSVFIFPPSDEQLKSGTASVVCLLNNFYPREAKVQWKVDNALQSGNSQESVTEQDSKDSTYSLSSTLTLSKADYEKHKVYACEVTHQGLSSPVTKSFNRGEC
notes: Heterodimerized anti-glypican 3 IgG1 antibody with the mutation in only one H chain (GpH7-B3 side); also called He Ab
B2: GpH7-A5/GpH7-B3 variant S337_19Q/GpL16-k0 (antibody, human IgG1, kappa)
heavy 1: not shown
heavy 2: not shown
light: B1 light
notes: heterodimerized anti-glypican 3 IgG1; mutation in one H chain only; also called He Ab
B3: GpH7-A5/GpH7-B3 variant S337_15Y/GpL16-k0 (antibody, human IgG1, kappa)
heavy 1: not shown
heavy 2: not shown
light: B1 light
notes: as for B1
B4: GpH7-A5/GpH7-B3 variant S337_07I/GpL16-k0 (antibody, human IgG1, kappa)
heavy 1: not shown
heavy 2: not shown
light: B1 light
notes: as for B2
B5: GpH7-A5/GpH7-B3 variant S337_20W/GpL16-k0 (antibody, human IgG1, kappa)
heavy 1: not shown
heavy 2: not shown
light: B1 light
notes: as for B1
B6: GpH7-A5/GpH7-B3 variant S337_11K/GpL16-k0 (antibody, human IgG1, kappa)
heavy 1: not shown
heavy 2: not shown
light: B1 light
notes: as for B2
B7: GpH7-A5/GpH7-B3 variant S337_19Q/GpL16-k0 (antibody, human IgG1, kappa)
heavy 1: not shown
heavy 2: not shown
light: B1 light
notes: as for B1
B8: GpH7-A5/GpH7-B3 variant S337_15Y/GpL16-k0 (antibody, human IgG1, kappa)
heavy 1: not shown
heavy 2: not shown
light: B1 light
notes: as for B2
B9: GpH7-A5/GpH7-B3 variant S337_14T/GpL16-k0 (antibody, human IgG1, kappa)
heavy 1: not shown
heavy 2: not shown
light: B1 light
notes: as for B1
B10: GpH7-A5/GpH7-B3 variant S337_14T/GpL16-k0 (antibody, human IgG1, kappa)
heavy 1: not shown
heavy 2: not shown
light: B1 light
notes: as for B2
B11: GpH7-A5/GpH7-B3 variant S337_11K/GpL16-k0 (antibody, human IgG1, kappa)
heavy 1: not shown
heavy 2: not shown
light: B1 light
notes: as for B1
B12: GpH7-A5/GpH7-B3 variant S337_16H/GpL16-k0 (antibody, human IgG1, kappa)
heavy 1: not shown
heavy 2: not shown
light: B1 light
notes: as for B1
B13: GpH7-A5/GpH7-B3 variant S337_08L/GpL16-k0 (antibody, human IgG1, kappa)
heavy 1: not shown
heavy 2: not shown
light: B1 light
notes: as for B2
B14: GpH7-A5/GpH7-B3 variant S337_20W/GpL16-k0 (antibody, human IgG1, kappa)
heavy 1: not shown
heavy 2: not shown
light: B1 light
notes: as for B2
B15: GpH7-A5/GpH7-B3 variant S337_07I/GpL16-k0 (antibody, human IgG1, kappa)
heavy 1: not shown
heavy 2: not shown
light: B1 light
notes: as for B1
B16: GpH7-A5/GpH7-B3 variant S337_16H/GpL16-k0 (antibody, human IgG1, kappa)
heavy 1: not shown
heavy 2: not shown
light: B1 light
notes: as for B2
B17: Kn125-L4-3 (antibody, human IgG1, kappa)
heavy 1: QDQLVQSGAEVKKPGASVKVSCKASGFNIKDTYIQWVRQAPGQGLEWMGRIDPLRKQTKYREKFEGRVTITADTSTNTAYMELSSLRSEDTAVYYCVRSGREFDYWGQGTLVTVSSASTKGPSVFPLAPSSKSTSGGTAALGCLVKDYFPEPVTVSWNSGALTSGVHTFPAVLQSSGLYSLSSVVTVPSSSLGTQTYICNVNHKPSNTKVDKKVEPKSCDKTHTCPPCPAPELLGGPSVFLFPPKPKDTLMISRTPEVTCVVVDVSHEEPEVKFNWYVDGVEVHNAKTKPREEQYNSTYRVVSVLTVLHQDWLNGKEYKCKVSNDALPMPIEETISKAKGQPREPQVYTLPPSRCELTKNQVSLSCAVKGFYPSDIAVEWESNGQPENNYKTTPPVLDSDGSFFLVSKLTVDKSRWQQGNVFSCSVMHEALHNHYTQKSLSLSP
heavy 2: QDQLVQSGAEVKKPGASVKVSCKASGFNIKDTYIQWVRQAPGQGLEWMGRIDPLRKQTKYREKFEGRVTITADTSTNTAYMELSSLRSEDTAVYYCVRSGREFDYWGQGTLVTVSSASTKGPSVFPLAPSSKSTSGGTAALGCLVKDYFPEPVTVSWNSGALTSGVHTFPAVLQSSGLYSLSSVVTVPSSSLGTQTYICNVNHKPSNTKVDKKVEPKSCDKTHTCPPCPAPEYQWGPMVFLFPPKPKDTLMISRTPEVTCVVVDVSDEEPEVKFNWYVDGVEVHNAKTKPREEQYNATYRVVSVLTVLHQDWLNGKEYKCKVSNKGGSALPAPIEKTISKAKGQPREPQVCTLPPSRDELTKNQVSLWCLVKGFYPSDIAVEWESNGQPENNYKTTPPVLDSDGSFFLYSKLTVDKSRWQQGNVFSCSVMHEALHNHYTQKSLSLSP
light: DIQMTQSPSSLSASVGDRVTITCRASQDIHKYIAWYQQKPGQAPRLLIQYTSTLQPGVPSRFSGSGSGTDYTFTISSLQPEDIATYYCLQYEQLRTFGGGTKVEIKRTVAAPSVFIFPPSDEQLKSGTASVVCLLNNFYPREAKVQWKVDNALQSGNSQESVTEQDSKDSTYSLSSTLTLSKADYEKHKVYACEVTHQGLSSPVTKSFNRGEC
notes: heterodimerized anti-EREG antibody: altered H240-Kn125 chain (Gly/Ser peptide in loop) with H240-Hl076 and L73-k0
B18: Kn125-L4-9 (antibody, human IgG1, kappa)
heavy 1: B17 heavy 1
heavy 2: QDQLVQSGAEVKKPGASVKVSCKASGFNIKDTYIQWVRQAPGQGLEWMGRIDPLRKQTKYREKFEGRVTITADTSTNTAYMELSSLRSEDTAVYYCVRSGREFDYWGQGTLVTVSSASTKGPSVFPLAPSSKSTSGGTAALGCLVKDYFPEPVTVSWNSGALTSGVHTFPAVLQSSGLYSLSSVVTVPSSSLGTQTYICNVNHKPSNTKVDKKVEPKSCDKTHTCPPCPAPEYQWGPMVFLFPPKPKDTLMISRTPEVTCVVVDVSDEEPEVKFNWYVDGVEVHNAKTKPREEQYNATYRVVSVLTVLHQDWLNGKEYKCKVSNKGGSGGSGGSALPAPIEKTISKAKGQPREPQVCTLPPSRDELTKNQVSLWCLVKGFYPSDIAVEWESNGQPENNYKTTPPVLDSDGSFFLYSKLTVDKSRWQQGNVFSCSVMHEALHNHYTQKSLSLSP
light: B17 light
notes: as for B17

Columns and labels:
[1] = target: T1, FcγRIa (human, UniProt P12314 16-292); experiment: SPR (Biacore), antibody captured on chip, FcγR as analyte; relative to GpH7-A5/GpH7-B3/GpL16-k0 = 100
T1 construct: extracellular domain; also called 1a
T1 sequence (P12314 other isoform, or with tags, fused parts or gaps): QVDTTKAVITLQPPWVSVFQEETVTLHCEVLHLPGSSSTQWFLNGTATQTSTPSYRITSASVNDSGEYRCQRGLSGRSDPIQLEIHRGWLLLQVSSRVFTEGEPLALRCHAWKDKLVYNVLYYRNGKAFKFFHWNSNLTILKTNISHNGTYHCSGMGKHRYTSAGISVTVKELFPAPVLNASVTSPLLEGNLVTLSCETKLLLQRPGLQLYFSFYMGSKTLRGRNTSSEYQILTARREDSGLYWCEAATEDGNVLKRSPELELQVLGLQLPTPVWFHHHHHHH

[2] = target: T2, FcγRIIa(H) (human, UniProt P12318 34-217); experiment: as above
T2 construct: extracellular domain; allotype H131; also called 2aH
T2 sequence: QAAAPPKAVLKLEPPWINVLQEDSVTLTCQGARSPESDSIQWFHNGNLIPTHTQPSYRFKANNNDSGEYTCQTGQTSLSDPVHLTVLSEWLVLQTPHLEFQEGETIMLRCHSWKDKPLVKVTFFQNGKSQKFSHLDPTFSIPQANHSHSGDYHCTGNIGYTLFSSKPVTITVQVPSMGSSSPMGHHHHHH

[3] = target: T3, FcγRIIIa (human, UniProt P08637 17-208); experiment: as above
T3 construct: extracellular domain; also called 3a
T3 sequence (P08637 other isoform, or with tags, fused parts or gaps): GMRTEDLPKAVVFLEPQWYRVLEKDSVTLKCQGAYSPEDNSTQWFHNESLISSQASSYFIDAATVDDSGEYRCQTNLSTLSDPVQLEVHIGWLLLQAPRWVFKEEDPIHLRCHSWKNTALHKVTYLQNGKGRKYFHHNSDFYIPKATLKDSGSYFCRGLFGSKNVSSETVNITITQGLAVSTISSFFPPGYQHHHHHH

[4] = target: T4, FcγRIIb (human, UniProt P31994 43-217); experiment: as above
T4 construct: extracellular domain; also called 2b
T4 sequence: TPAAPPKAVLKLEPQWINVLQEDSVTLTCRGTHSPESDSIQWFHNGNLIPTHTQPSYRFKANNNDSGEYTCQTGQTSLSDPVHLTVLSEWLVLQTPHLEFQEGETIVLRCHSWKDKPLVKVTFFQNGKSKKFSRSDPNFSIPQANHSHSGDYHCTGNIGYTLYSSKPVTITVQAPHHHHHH

[5] = target: T5, FcγRIIa(R) (human, UniProt P12318 34-217); experiment: as above
T5 construct: extracellular domain; allotype R131; also called 2aR
T5 sequence: T2 sequence with H134R

[6] = target: T6, FcγRIIIa extracellular domain with C-terminal His tag (allotype not given) (human, UniProt P08637 17-208); experiment: SPR (Biacore), captured antibody, FcγRIIIa analyte; binding relative to GpH7-A5/GpH7-B3/GpL16-k0 = 100
T6 construct: extracellular domain; also called 3a

[7] = target: T7, FcγRIIIaV (human, UniProt P08637 17-208); experiment: SPR (Biacore), antibody captured, FcγR as analyte, 1:1 Langmuir fit
T7 construct: extracellular domain
T7 sequence (P08637 other isoform, or with tags, fused parts or gaps): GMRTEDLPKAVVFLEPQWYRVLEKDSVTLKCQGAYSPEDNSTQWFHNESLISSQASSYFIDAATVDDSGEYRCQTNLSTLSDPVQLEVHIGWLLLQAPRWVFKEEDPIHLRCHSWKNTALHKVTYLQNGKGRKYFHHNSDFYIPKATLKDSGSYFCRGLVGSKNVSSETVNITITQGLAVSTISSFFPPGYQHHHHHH

| Binder | He/Con 1a (binding activity relative to GpH7-A5/GpH7-B3/GpL16-k0 x 100) [1] | He/Con 2aH (binding activity relative to GpH7-A5/GpH7-B3/GpL16-k0 x 100) [2] | He/Con 3a (binding activity relative to GpH7-A5/GpH7-B3/GpL16-k0 x 100) [3] | He/Con 2b (binding activity relative to GpH7-A5/GpH7-B3/GpL16-k0 x 100) [4] | He/Con 2aR (binding activity relative to GpH7-A5/GpH7-B3/GpL16-k0 x 100) [5] | He/Con 3a [6] [%] | Kd [7] [nM] |
| --- | --- | --- | --- | --- | --- | --- | --- |
| B1 | 102 % of control | 106 % of control | 90.2 % of control | 109 % of control | 109 % of control | – | – |
| B2 | – | – | – | – | – | 91.2 | – |
| B3 | 101 % of control | 106 % of control | 94.9 % of control | 109 % of control | 107 % of control | – | – |
| B4 | – | – | – | – | – | 88.3 | – |
| B5 | 102 % of control | 108 % of control | 93.8 % of control | 119 % of control | 112 % of control | – | – |
| B6 | – | – | – | – | – | 80.1 | – |
| B7 | 101 % of control | 104 % of control | 91.2 % of control | 109 % of control | 108 % of control | – | – |
| B8 | – | – | – | – | – | 94.9 | – |
| B9 | 102 % of control | 110 % of control | 94 % of control | 114 % of control | 112 % of control | – | – |
| B10 | – | – | – | – | – | 94 | – |
| B11 | 101 % of control | 102 % of control | 80.1 % of control | 103 % of control | 105 % of control | – | – |
| B12 | 101 % of control | 108 % of control | 100 % of control | 114 % of control | 111 % of control | – | – |
| B13 | – | – | – | – | – | 90.2 | – |
| B14 | – | – | – | – | – | 93.8 | – |
| B15 | 102 % of control | 107 % of control | 88.3 % of control | 113 % of control | 111 % of control | – | – |
| B16 | – | – | – | – | – | 100 | – |
| B17 | – | – | – | – | – | – | 6.9 |
| B18 | – | – | – | – | – | – | 1.7 |
